T1: Recombinant Human DLL3 Protein (amino acids Ala27-Ala479, cat #9749-DL, R&D Systems) (human, UniProt Q9NYJ7 27-479)
T1 construct: Bought protein
T1 sequence: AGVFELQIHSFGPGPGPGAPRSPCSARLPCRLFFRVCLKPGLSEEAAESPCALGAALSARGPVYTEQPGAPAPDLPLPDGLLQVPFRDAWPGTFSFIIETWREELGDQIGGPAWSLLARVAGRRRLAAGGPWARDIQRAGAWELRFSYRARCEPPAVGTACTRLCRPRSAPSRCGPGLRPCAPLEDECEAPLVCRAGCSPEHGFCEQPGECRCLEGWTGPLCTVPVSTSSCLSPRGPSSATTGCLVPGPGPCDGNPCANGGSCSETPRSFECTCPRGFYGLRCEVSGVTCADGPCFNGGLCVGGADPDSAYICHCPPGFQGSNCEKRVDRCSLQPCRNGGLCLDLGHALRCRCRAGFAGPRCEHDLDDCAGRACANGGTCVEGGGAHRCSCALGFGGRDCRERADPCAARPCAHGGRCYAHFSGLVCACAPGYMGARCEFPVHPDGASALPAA

T2: hDLL3 (human, UniProt Q9NYJ7 27-479, limits assumed)
T2 construct: also called human DLL3
T2 sequence: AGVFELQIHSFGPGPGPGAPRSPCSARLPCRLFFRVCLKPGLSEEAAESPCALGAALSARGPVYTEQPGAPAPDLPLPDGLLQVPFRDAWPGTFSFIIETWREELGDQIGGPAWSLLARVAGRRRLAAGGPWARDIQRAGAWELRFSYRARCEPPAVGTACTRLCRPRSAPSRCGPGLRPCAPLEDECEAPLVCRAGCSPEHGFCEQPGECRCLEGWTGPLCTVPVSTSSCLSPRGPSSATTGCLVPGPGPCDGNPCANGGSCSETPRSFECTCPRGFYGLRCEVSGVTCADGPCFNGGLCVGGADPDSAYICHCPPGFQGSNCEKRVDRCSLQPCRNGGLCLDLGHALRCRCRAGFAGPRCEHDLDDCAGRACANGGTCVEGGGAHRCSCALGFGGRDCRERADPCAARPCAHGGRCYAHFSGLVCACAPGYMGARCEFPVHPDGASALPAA

T3: DLL3 on H82 xenograft tumor cells (UniProt Q9NYJ7 27-618, limits assumed)
T3 construct: whole, on cells; H82 is a human SCLC line by general knowledge
T3 sequence (looked up): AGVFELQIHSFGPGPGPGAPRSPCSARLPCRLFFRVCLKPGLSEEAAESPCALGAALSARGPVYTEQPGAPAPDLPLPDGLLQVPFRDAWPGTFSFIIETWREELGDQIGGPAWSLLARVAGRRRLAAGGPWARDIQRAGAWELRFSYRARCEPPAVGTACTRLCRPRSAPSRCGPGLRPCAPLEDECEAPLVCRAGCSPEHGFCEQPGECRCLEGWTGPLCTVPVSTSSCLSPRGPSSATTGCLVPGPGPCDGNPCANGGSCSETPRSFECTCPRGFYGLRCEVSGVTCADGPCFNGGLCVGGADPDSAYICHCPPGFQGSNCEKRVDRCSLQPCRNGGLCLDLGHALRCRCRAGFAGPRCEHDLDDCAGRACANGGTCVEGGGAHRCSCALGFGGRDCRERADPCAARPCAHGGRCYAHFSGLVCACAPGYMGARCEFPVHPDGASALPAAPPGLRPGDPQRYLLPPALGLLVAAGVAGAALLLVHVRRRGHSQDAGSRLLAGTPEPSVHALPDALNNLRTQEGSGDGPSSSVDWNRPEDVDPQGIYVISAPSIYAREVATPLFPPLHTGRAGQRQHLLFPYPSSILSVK


Legend:
[1] = target: T1, Recombinant Human DLL3 Protein (amino …); assay: BLI, Octet HTX, 25 C; mAb on anti-mouse Fc sensors, DLL3 as analyte from 200 nM
Method: The 23 purified monoclonal antibodies (5 μg/mL each) were loaded onto anti-mouse Fc sensors.

hDLL3 [2] = target: T2, hDLL3; assay: method not stated (column 'Affinity hDLL3')
hDLL4 = hDLL4 (human, UniProt Q9NR61 27-524, limits assumed); assay: ELISA; signal unit not stated
Chain of hDLL4 (Q9NR61 27-524 limits assumed): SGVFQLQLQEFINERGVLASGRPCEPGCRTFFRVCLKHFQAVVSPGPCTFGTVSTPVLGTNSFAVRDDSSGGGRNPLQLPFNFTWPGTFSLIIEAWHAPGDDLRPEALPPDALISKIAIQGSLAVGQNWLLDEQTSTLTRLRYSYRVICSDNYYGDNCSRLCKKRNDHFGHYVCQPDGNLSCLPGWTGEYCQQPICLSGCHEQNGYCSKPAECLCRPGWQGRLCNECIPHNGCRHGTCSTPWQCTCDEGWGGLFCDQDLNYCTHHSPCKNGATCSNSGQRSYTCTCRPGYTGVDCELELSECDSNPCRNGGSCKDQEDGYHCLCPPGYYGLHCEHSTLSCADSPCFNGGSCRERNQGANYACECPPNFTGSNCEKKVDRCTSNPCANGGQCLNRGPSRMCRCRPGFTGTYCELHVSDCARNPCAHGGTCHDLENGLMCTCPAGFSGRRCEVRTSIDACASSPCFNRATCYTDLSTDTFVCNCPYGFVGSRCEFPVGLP

hDLL3 [3] = target: T2, hDLL3; assay: ELISA; signal unit not stated
[4] = target: T3, DLL3 on H82 xenograft tumor cells; assay: immunoPET imaging of athymic mice bearing right flank subcutaneous H82 xenografts after tail vein injection of the Zr-89 labelled antibody; time point not printed on the sheet
Method: To ensure adequate binding to DLL3 in vivo, the three antibodies were first bioconjugated to p-SCN-Bn-DFO chelators and then radiolabeled with Zr-89 for injection via tail vein into athymic female mice bearing right flank subcutaneous H82 xenografts (250-300 Ci, 30 μg). ImmunoPET imaging was performed every 24 h until 120 h, when a terminal ex vivo biodistribution study was performed.

Binder	Kd [1]	also measured
F21 (antibody, V domains shown, Purified hybridoma monoclonal antibody; loaded on anti-mouse Fc sensors in BLI) VH: EVQLVESGGGLVQPGGSLRLSCAASGFTFSSYWMSWVRQAPGKGLEWVANIKQDGSEKYYVDSVKGRFTISRDNAKNSLYLQMNSLRAEDTAVYYCAREWLRFGGLVYWGQGTLVTVSS VL: not shown	6.12 nM	–
B22 (antibody, V domains shown, Purified hybridoma monoclonal antibody; loaded on anti-mouse Fc sensors in BLI) VH: EVQLVESGGGLVQPGGSLRLSCAASGFTFNNFWMSWVRQAPGKGLEWVANIKQDGSEKYYVDSVKGRFTISRDNAKNSLYLQMNSLRAEDTAVYYCARESYFDLWGRGTLVTVSS VL: QAVVTQESALTTSPGETVTLTCRSSTGAVTTSNYANWVQEKPDHLFTGLIGGTNNRAPGVPARFSGSLIGDKAALTITGAQTEDEAIYFCALWYSNRWVFGGGTKLTVL	1.84 nM	–
J8 (antibody, V domains shown) VH: QVHLVQSGAEVKKPGASVKVSCKASGYTFTIYYIHWVRQAPGQGLEWMGIINPSGGSTSYAQKFQGRVTMTRDTSTSTVYMELSSLRSEDTAVYYCSGNDYVDYVTTDYYGMDVWGQGTTVTVSS VL: DIQMTQSPSSLSASVGDRVTITCRASQGISNYLAWFQQKPGKAPKSLIYAASSLQSGVPSKFSGSGSGTDFTLTISSLQPEDFATYYCQQYNSSPYTFGQGTKLEIK	0.001 nM	Kd (hDLL3 [2]): < 0.001 nM; ELISA hDLL4 (hDLL4): 0.085; ELISA hDLL3 (hDLL3 [3]): 1.38
O24 (antibody, V domains shown, the description prints the designation as '024' (zero); also called 024) VH: QVQLVQSGAEVKKPGASVKVSCKASGYTFTSYYLHWVRQAPGHGLEWMAIINPSGGSTSYAQKFLGRVTMTRDTSTNTVYMELSSLRSEDTAVYYCARERQQLDYYYFAMDVWGQGTTVTVSS VL: DIQMTQSPSSLSASVGDRVTITCRASQGISNYLAWFQQKPGKAPKSLIYAASSLQSGVPSKFSGSGSGTDFTLTISSLQPEDFATYYCQQYNSYPPTFGQGTKVEIK	1.28 nM	–
E9 (antibody, V domains shown, Purified hybridoma monoclonal antibody (Ablexis AlivaMab Kappa mice); loaded on anti-mouse Fc sensors in BLI) VH: QVQLVQSGAEVKKPGASVKVSCKASGYTFTSYYMHWVRQAPGQGLEWMGVINSSGGSTSYAQKFQGRVTMTRDTSTSTVYMDLSSLRSEDTAVYYCARGYCTNGVYYDEDFDYWGQGTLVTVSS VL: DIQMTQSPSSLSASVGDRVTITCRASQGISHYLAWFQQKPGKAPTSLIYAASSLQSGVPSKFSGSGSGTDFTLTISSLQPEDFATYYCQQYNSYPLTFGGGTKVEIK	0.3 nM	–
B2 (antibody, V domains shown) VH: QVQLVQSGAEVKKPGASVKVSCKASGYTFTSYYMHWVRQAPGQGLEWMGIINPSGGSTSYAQKFRGRVTMTRDTSTSTVYMELSSLRSEDTAVYYCARGDYDILTDYYYNMDVWGQGTTVTVSS VL: DIQMTQSPSAMSASVGDRVTITCRASQGISNYLAWFQQKPGKVPKRLIYAASSLQSGVPSRFSGSGSGTEFTLTISSLQPEDFATYYCLQHNSYPYTFGQGTKLEIK	1.46 nM	ELISA hDLL4 (hDLL4): 0.043; ELISA hDLL3 (hDLL3 [3]): 1.21
D8 (antibody, V domains shown, Purified hybridoma monoclonal antibody; loaded on anti-mouse Fc sensors in BLI) VH: QVQLVQSGAEVKKPGASVKVSCKASGYTFTTYYMHWVRQAPGQGLEWMGIINPSGGSTSYAQKFQGRVTMTRDTSTSTVYMELSSLRSEDTAVYYCARQGHYIGNYLDYWGQGTLVTVSS VL: not shown	0.438 nM	–
L12 (antibody, V domains shown, Purified hybridoma monoclonal antibody; loaded on anti-mouse Fc sensors in BLI) VH: QVQLVQSGAEVKKPGASVKVSCKASGYTFTSYYMHWVRQAPGQGLEWMGIINPSGGSRSYAQKFQGRVTMTRDTSTSTVYMELSSLRSEDTAVYYCARQLELLGNAFDIWGQGTMVTVSS VL: not shown	3.1 nM	–
C22 (antibody, V domains shown, Purified hybridoma monoclonal antibody; loaded on anti-mouse Fc sensors in BLI) VH: QVQLVQSGAEVKKPGASVKVSCKASGYTFTSYYMHWVRQAPGQGLEWMGIINPSGGSTSYAQKFQGRVTMTRDTSTSTVYMELSSLRSEDTAVYYCARVADIVGATFDYWGQGTLVTVSS VL: not shown	0.431 nM	–
J23 (antibody, V domains shown, Purified hybridoma monoclonal antibody; loaded on anti-mouse Fc sensors in BLI) VH: QVQLVQSGAEVKKPGASVKVSCKASGYTFTSYYMHWVRQAPGQGLEWMGIINYSGGSKSYAQKFQGRVTMTRDTSTSTVYMELSSLRSEDTGVYYCARQGRYSGSYLDYWGQGTLVTVSS VL: not shown	0.998 nM	–
M11 (antibody, V domains shown, Purified hybridoma monoclonal antibody; loaded on anti-mouse Fc sensors in BLI) VH: QVQLVQSGAEVKKPGASVKVSCKASGYTFTSYYIHWVRQAPGQGLEWMGIINPSGGSKSYAQKFQGRVTMTRDTSTGTVYMELSSLRSEDTAVYYCAGQLELLGNAFDIWGQGTMVTVSS VL: not shown	2.76 nM	–
L22 (antibody, V domains shown) VH: EVQLLESGGGLVQPGGSLRLSCAASGFTFSSYAMGWVRQTPGKGLEWVSTISGRGGDTYYADSVKGRFTISRDNSKNTLYLQMNSLRAEDTAIYYCAKERGLGFDYWGQGTLVTVSS VL: DIVMTQTPLSLPVTPGEPASISCRSSQSLLDSDDGNTYLDWYLQKPGQSPQLLIYTLSYRASGVPDRFSGSGSGTDFTLKISRVEAEDVGVYYCMQHLEFPLTFGGGTKVEIK	3.55 nM	Kd (hDLL3 [2]): 1.46 nM; ELISA hDLL4 (hDLL4): 0.056; ELISA hDLL3 (hDLL3 [3]): 1.64
F9 (antibody, V domains shown, also called 1F9) VH: QVQLVQSGAEVKKPGASVQVSCKASGYTFTSYYMHWVRQAPGQGLEWMGIINPSGGSTSYAQKFQGRVTMTRDTSTSTVYMELSSLRSEDTAVYYCARQGGAQWLVLAFDIWGQGTMVTVSS VL: EIVLTQSPGTLSLSPGERATLSCRASQSVSSYLAWYQQKPGQPPRLLIYGASSRATGIPDRFSGGGSGTDFTLTISRLEPEDFAVYYCQQYDSSPYTFGQGTKLEIK	3.01 nM	–
G16 (antibody, V domains shown, Purified hybridoma monoclonal antibody; loaded on anti-mouse Fc sensors in BLI) VH: QVQLVQSGAEVKKPGASVQVSCKASGYTFTSYYMHWVRQAPGQGLEWMGIINPSGGSTSYAQKFQGRVTMTRDTSTSTVYMELSSLRSEDTAVYYCARQGGAQWLVLAFDIWGQGTMVTVSS VL: EIVLTQSPGTLSLSPGERATLSCRASQSVSSYLAWYQQKPGQAPRLLIYGASSRATGIPDRFSGGGSGTDFTLTISRLEPEDFAVYYCQQYGSSPYTFGQGTKLEIK	4.88 nM	–
P4 (antibody, V domains shown, Purified hybridoma monoclonal antibody; loaded on anti-mouse Fc sensors in BLI) VH: EVQLVESGGGLVKPGGSLRLSCAASGFTFSFYSMNWVRQAPGKGLEWVSSISSSSSYIYYADSVKGRFTISRDNAKNSLYLQMNSLRAEDTAVYYCARNYDFWRGAFDIWGQGTMVTVSS VL: not shown	6.5 nM	–
E23 (antibody, V domains shown, loaded on anti-mouse Fc sensors in BLI) VH: QVQLVQSGAEVRKPGASVKVSCKASGYTFTGYYMHWVRQAPGQGLEWMGWINSYSGGANYAQKFQDRVTMTRDTSVSTASMELSRLRSDDTAVYYCARDGSGWYGSYFDFWGQGTLVTVSS VL: DIVMTQTPLSSPVTLGQPASISCRSSQSLVHSDGNTYLSWLQQRPGQPPRLLIYKISNRFSGVPDRFSGSGAGTDFTLKISRVEAEDVGFYYCIQTTQFPLTFGGGTKVEIK	0.511 nM	–
G3 (antibody, V domains shown, Purified hybridoma monoclonal antibody; loaded on anti-mouse Fc sensors in BLI) VH: QVQLQESGPGLVKPSETLFLTCTVSGGSISSYYWTWIRQPAGKGLEWIGRIYTSGSTNYNPSLKSRVTMSVDTSKNQFSLKLSSVTAADTAVYYCAREDWESWTFDIWGQGTMVTVSS VL: not shown	0.908 nM	–
[89Zr]Zr-DFO-A18 antibody (antibody, V domains shown, p-SCN-Bn-DFO chelator bioconjugated to the antibody (sites not given), radiolabeled with Zr-89, also called A18 (monoclonal IgG4, DFO-conjugated, Zr-89 labeled)) VH: QVTLRESGPALVKSTQTLTLTCTFSGFSLSTSGMCVSWIRQTPGKALEWLALIDWDDNKYYSTSLKTRLIISKDTSKNQVVLTMTNMEPVDTATYYCARIRGYSGSYDAFDIWGQGTMVTVSS VL: DIVMTQSPLSLPVTPGEPASISCRSSQSLLHSNGYNYLDWYLQKPGQSPHILLYLGSNRAPGVPDRFSGSGSGTDFTLKISRVEAEDVGVYYCMQALQTPFTFGPGTKVDIK	–	binding result [4]: binds
A18 (antibody, V domains shown, Purified hybridoma monoclonal antibody) VH: QVTLRESGPALVKSTQTLTLTCTFSGFSLSTSGMCVSWIRQTPGKALEWLALIDWDDNKYYSTSLKTRLIISKDTSKNQVVLTMTNMEPVDTATYYCARIRGYSGSYDAFDIWGQGTMVTVSS VL: DIVMTQSPLSLPVTPGEPASISCRSSQSLLHSNGYNYLDWYLQKPGQSPHILLYLGSNRAPGVPDRFSGSGSGTDFTLKISRVEAEDVGVYYCMQALQTPFTFGPGTKVDIK	0.236 nM	–
